Measured values as given in the supplement of paper PMC10567573.

B1: FEM1B (parent)
chain: TLAALLLNRSESDIRYLLGYVSQQ

Variants of: B1
Assay: protein stability index of a GFP-peptide fusion (GPS, HEK-293T) (PSI 1-6); higher = more stable
Details: c terminus: a fixed tail appended
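Note: lentivirally expressed fusions sorted by FACS into six bins by GFP to DsRed ratio, PSI derived from sequencing read proportions per bin multiplied by bin number.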

Protein stability index of substitutions, site by site:
L5: M 3.24, N 1.76, P 1.79, Q 3.07, R 3.37, S 2.6, T 2.71, V 3.12, W 2.25, Y 3.74
L6: A 2.12, C 1.21, D 2.5, E 1.7, F 2.65, G 1.97, H 1.85, I 2.88, K 2.37, M 2.56, N 1.8, P 2.21, Q 1.38, R 1.76, S 1.82, T 1.76, V 2.22
L7: A 2.03, C 2.03, D 1.97, E 1.42, F 2.56, G 1.79, H 1.7, K 2.38, M 2.58, N 1.95, P 1.3, Q 1.79, R 1.78, S 1.31, W 2.28, Y 1.28
N8: A 2.48, C 4.47, D 3.63, F 2.45, G 2.04, H 2.92, I 1.53, K 4.32, M 4.03, Q 3.3, R 3, S 2.67, T 2.38, W 4.75
R9: C 2.13, D 2.9, E 1.98, F 2.9, G 3.4, H 1.58, I 3.29, K 1.96, L 3.24, N 2.57, P 1.92, Q 1.96, S 2.7, T 2.94, V 2.67, W 2.79, Y 2.52
S10: A 3.37, C 2.4, E 3.2, F 3.1, G 1.53, H 4.65, I 3.57, K 2.28, L 3.05, M 1.87, N 2.29, P 3.81, Q 4.48, V 1.87, W 3.07, Y 2.41
E11: A 2.44, C 3.04, D 2.49, F 3.19, G 3.03, H 3.15, I 4.17, K 2.83, L 3.34, M 3.08, N 3.2, P 2.08, Q 1.99, R 3.13, S 3.2, T 2.44, V 2.96, W 2.68, Y 3.35
S12: A 2.19, D 2.71, E 3.18, F 2.89, G 3.69, H 2.48, I 3.15, K 3.14, L 2.36, M 2.33, N 2.79, P 3.27, Q 2.69, R 2.36, T 2.18, V 1.73, W 3.62, Y 2.93
D13: A 2.76, C 3.94, E 3.26, F 1.76, G 2.81, H 3.21, I 3.07, K 2.79, L 3.62, M 3.99, N 2.77, P 2.13, Q 2.04, R 2.72, S 2.62, T 2.88, V 3.19, W 4.04, Y 3.38
I14: A 2.58, C 2.37, D 1.53, E 2.85, F 2.7, G 3.06, H 3.1, K 1.96, L 2.7, M 3.25, N 1.74, P 1.79, Q 2.35, R 3, S 3, T 2.56, V 2.9, W 1.77, Y 3.54
R15: A 2.31, C 2.14
